Laboratory results as given in patent publication US20260062466A1 (WASHINGTON UNIVERSITY, published 2026).

Assays:
[1] = target: CHIKV-37997 (virus) (Chikungunya virus strain 37997, UniProt Q5XXP3 326-748; Q5XXP3 810-1248); assay: cell-based or functional assay
[2] = target: CHIKV-LR 2006 (virus) (Chikungunya virus strain LR 2006); assay: cell-based or functional assay

CHIKV-37997 (virus), sequence (Q5XXP3 326-748 limits assumed, chain 1 of 2): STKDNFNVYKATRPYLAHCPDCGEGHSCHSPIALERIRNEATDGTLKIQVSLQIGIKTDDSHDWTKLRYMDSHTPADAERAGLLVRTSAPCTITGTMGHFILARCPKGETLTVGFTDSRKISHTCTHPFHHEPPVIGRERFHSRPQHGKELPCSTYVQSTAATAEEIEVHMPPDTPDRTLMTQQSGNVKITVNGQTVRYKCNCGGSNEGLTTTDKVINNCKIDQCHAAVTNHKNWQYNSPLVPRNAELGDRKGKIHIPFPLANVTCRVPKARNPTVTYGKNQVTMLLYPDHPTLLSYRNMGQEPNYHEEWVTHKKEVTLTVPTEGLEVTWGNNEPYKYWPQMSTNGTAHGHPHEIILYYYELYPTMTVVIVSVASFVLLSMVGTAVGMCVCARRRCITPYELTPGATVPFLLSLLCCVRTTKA
CHIKV-37997 (virus), sequence (Q5XXP3 810-1248 limits assumed, chain 2 of 2): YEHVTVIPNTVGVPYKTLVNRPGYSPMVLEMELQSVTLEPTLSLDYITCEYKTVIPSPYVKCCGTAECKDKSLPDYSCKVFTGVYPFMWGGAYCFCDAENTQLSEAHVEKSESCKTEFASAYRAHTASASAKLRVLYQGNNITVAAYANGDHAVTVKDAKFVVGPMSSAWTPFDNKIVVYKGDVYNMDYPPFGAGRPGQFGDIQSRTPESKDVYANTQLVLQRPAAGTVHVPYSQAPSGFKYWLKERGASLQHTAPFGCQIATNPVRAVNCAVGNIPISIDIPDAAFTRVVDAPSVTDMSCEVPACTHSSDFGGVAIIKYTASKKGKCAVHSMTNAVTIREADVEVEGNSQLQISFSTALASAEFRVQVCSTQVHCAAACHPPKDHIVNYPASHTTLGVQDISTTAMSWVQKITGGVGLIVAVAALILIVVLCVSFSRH

B1: 506.A08 (antibody, V domains shown)
VH: EEQLVESGGGLVQPGGSLRLSCAASGFTFSSYSMNWVRQAPGKGLEWVSYISSSSSTIHYADSVKGRFTISRDNAKNSLYLQMNSLRAEDTAVYYCAREGNSGYEPLDYWGQGTLVTVSS
VL: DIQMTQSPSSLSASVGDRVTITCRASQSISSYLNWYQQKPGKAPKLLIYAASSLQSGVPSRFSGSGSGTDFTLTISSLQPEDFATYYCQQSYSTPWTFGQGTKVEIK
[1]
  FRNT neutralisation, 37997 EC50: 0.072 µg/mL
[2]
  FRNT neutralisation, LR 2006 EC50: 0.11 µg/mL

B2: 506.C01 (antibody, V domains shown)
VH: QVQLQESGPGLVKPSQTLSLTCTVSGGSISSDDYYWTWIRLPPGKGLEWIGYIFYTGGTYYNPSLKSRVTISLDRSKNQFSLKLSSVTAADTAVYFCARAPETYCSTTNCYKGYFDSWGQGTLVTVSS
VL: DIQMTQSPSSVSASVGDRVTITCRASQGISSWLGWYQQKPGKAPKLLIYAASSLQSGVPSRFSGSGSGTDFTLTISSLQPEDFATYYCQQANSFPRTFGQGTKVEIK
[1]
  FRNT neutralisation, 37997 EC50: 0.002 µg/mL
[2]
  FRNT neutralisation, LR 2006 EC50: 0.008 µg/mL

B3: 516.A10 (antibody, V domains shown)
VH: QVQMVESGGGVVQPGRSLRLSCAASGFTFSSYPIHWVRQVPGKGLEWVAVISYDGSNKYYADSVKGRFTISRDNSKNTLYLQMNSLRPEDTAVYFCARGRGDFELNSFDYWGQGTLVTVSS
VL: EIVLTQSPGTLSLSPGERATLSCRASQSVSSSYLGWYQQKLGQAPRLLIYGASSRATGIPDRFSGSGSGTDFTLTISRLEPEDFAVYYCQQYGSTPFTFGPGTKVDIK
[1]
  FRNT neutralisation, 37997 EC50: 0.128 µg/mL
[2]
  FRNT neutralisation, LR 2006 EC50: 0.004 µg/mL
